{
  "source": "patent US20100216693A1",
  "about": "“COMPOSITIONS AND METHODS OF TREATING DIABETES” (priority 2005, published 2010)",
  "key": {"[1]": {"target": "Human insulin (Actrapid) (human)", "test": "SPR (Biacore 3000), insulin 0.25-10 µM over C-terminally immobilized insulin; global fit, analyte with two sites competing for one site on the chip; slow off rate"}, "[2]": {"target": "Human insulin (Actrapid) (human)", "test": "SPR (Biacore 3000), insulin 0.25-10 µM over C-terminally immobilized insulin; global fit, analyte with two sites competing for one site on the chip; rapid off rate"}},
  "data": [
    {"substance": "Human insulin (Actrapid) (ligand; other documents disagree on this pair)", "values": [
      {"measurement": "Kd", "setting": "[1]", "result": 2.71, "unit": "µM"},
      {"measurement": "Kd", "setting": "[2]", "result": 4.65, "unit": "µM"}
    ]}
  ]
}
